Target: HA of A/CA/04/09 (H1N1) virus (Influenza A virus A/CA/04/09 (H1N1))
Experiment: cell-based or functional assay

With CT-P27 as the substance, how does the EC50, microneutralization test read?
The EC50, microneutralization test was 0.62 µg/mL.

— patent US20160052997A1
